The record followed here is publication PMC2112137.

In assay [1] the target is rabbit skeletal muscle F-actin (rabbit) (UniProt P68135). Description: co-sedimentation.
Assay [2] deals with plasmodial actin of Physarum polycephalum (pure plasmodial F-actin) (Physarum polycephalum). Description: light scattering.
Assay [3] has the same target. Description: co-sedimentation.
Assay [4] concerns the target F-actin-36,000-dalton factor complex (rabbit skeletal F-actin plus Physarum 36,000-dalton factor) (rabbit | Physarum polycephalum) (UniProt P68135). Description: co-sedimentation.

Regarding “36,000-dalton factor (novel 36,000-dalton actin-binding protein from Physarum plasmodia) (natural protein)”, in assay [1], the factor/actin weight ratio in the pellet (g/g (factor/actin)) worked out at 0.12 and the stoichiometry N (mol actin per mol 36,000-dalton factor) turned out to be 6.6.
In assay [2], “heavy meromyosin (HMM) of rabbit skeletal muscle myosin (complex)” gave an HMM bound by 0.1 mg/ml F-actin (untreated actin) of 0.362 mg/mL and a stoichiometry N (mol actin monomer per mol HMM) of 2. Further, in assay [3], the Actin/HMM binding ratio stood at 0.192 g/g and the stoichiometry N (mol actin per mol HMM) was found to be 2.
“rabbit skeletal muscle troponin (complex)”: the Bound TN (%) in assay [4] was found to be 25.8%.
